Measurements taken from article PMC5793714, “Functional implications of corticosteroid-binding globulin N-glycosylation” (Journal of Molecular Endocrinology, 2017).

Columns and labels:
Western blot of medium = conditions: glycan lost, control: untreated CHO-S cells
[1] = Western blot of culture medium; conditions: glycan lost; control: rat CBG
[2] = loss of cortisol-binding capacity after protease incubation; conditions: glycan lost; control: un-mutated CBG

B1: rat CBG: tunicamycin (protein)
parent chain: MSLALYTCLLWLCTSGLWTAQASTNESSNSHRGLAPTNVDFAFNLYQRLVALNPDKNTLISPVSISMALAMVSLGSAQTQSLQSLGFNLTETSEAEIHQSFQYLNYLLKQSDTGLEMNMGNAMFLLQKLKLKDSFLADVKQYYESEALAIDFEDWTKASQQINQHVKDKTQGKIEHVFSDLDSPASFILVNYIFLRGIWELPFSPENTREEDFYVNETSTVKVPMMVQSGSIGYFRDSVFPCQLIQMDYVGNGTAFFILPDQGQMDTVIAALSRDTIDRWGKLMTPRQVNLYIPKFSISDTYDLKDMLEDLNIKDLLTNQSDFSGNTKDVPLTLTMVHKAMLQLDEGNVLPNSTNGAPLHLRSEPLDIKFNKPFILLLFDKFTWSSLMMSQVVNPA
expression_or_secretion, other: % of untreated (Western blot of medium): decreases

B2: rat CBG: N230D (protein)
parent chain: B1 parent chain
expression_or_secretion [1]: no change

B3: human CBG (corticosteroid-binding globulin): tunicamycin (human CBG) (protein)
parent chain: MPLLLYTCLLWLPTSGLWTVQAMDPNAAYVNMSNHHRGLASANVDFAFSLYKHLVALSPKKNIFISPVSISMALAMLSLGTCGHTRAQLLQGLGFNLTERSETEIHQGFQHLHQLFAKSDTSLEMTMGNALFLDGSLELLESFSADIKHYYESEVLAMNFQDWATASRQINSYVKNKTQGKIVDLFSGLDSPAILVLVNYIFFKGTWTQPFDLASTREENFYVDETTVVKVPMMLQSSTISYLHDSELPCQLVQMNYVGNGTVFFILPDKGKMNTVIAALSRDTINRWSAGLTSSQVDLYIPKVTISGVYDLGDVLEEMGIADLFTNQANFSRITQDAQLKSSKVVHKAVLQLNEEGVDTAGSTGVTLNLTSKPIILRFNQPFIIMIFDHFTWSSLFLARVMNPV
expression_or_secretion, other: % of untreated (Western blot of medium; same construct): decreases

B4: human CBG (corticosteroid-binding globulin): N347Q (protein)
parent chain: B3 parent chain
other: protease susceptibility [2]: increases

B5: human CBG (corticosteroid-binding globulin): tunicamycin (CBG N238) (protein)
parent chain: B3 parent chain
expression_or_secretion, other: % of untreated (Western blot of medium; same construct): decreases

B6: human CBG (corticosteroid-binding globulin): T349A (protein)
parent chain: B3 parent chain
other: protease susceptibility [2]: increases
